Substitutions are numbered along the chain they refer to.
What was measured:
[1] = target: T1, von Willebrand factor (VWF) (Homo sapiens, UniProt P04275 P04275:764-2813); assay: filter; Bmax 73%; 2 mM CaCl2, 37 C; conditions: Haematologic Technologies Inc, label: 5'-32P
Procedure: (§1) Affinity constants (Kd values) were determined using double-filter nitrocellulose filter binding assays (Rusconi et al, Thromb. Haemost. $4:841-848 (2000)). All binding studies were performed in binding buffer F (20 mM HEPES, pH 7.4, 150 mM NaCl, 2 mM CaCl₂, and 0.01% BSA) at 37° C. Human purified VWF (factor VIII free) was purchased from Haematologic Technologies Inc. (Essex Junction, Vt.) and used in the double-filter nitrocellulose filter binding assay to determine the Kd of the aptamers. Briefly, RNA were end-labeled at the 5′ end with T4 polynucleotide kinase (New England Biolabs, Beverly, Mass.) and [γ³²P] ATP (Amersham Pharmacia Biotech, Piscataway, N.J.) (Fitzwater and Polisky, Methods Enzymol. 267:275-301 (1996)). End-labeled RNA was diluted in binding buffer F, heat denatured at 65° C. for 5 minutes, and subsequently equilibrated at 37° C. Direct binding was performed by incubating trace ³²P-RNA with varying concentrations of VWF protein in binding buffer F at 37° C. for 5 min. The fraction of the nucleic acid-protein complex which bound to the nitrocellulose membrane was quantified with a phosphorimager (Molecular Dynamics, Sunnyvale, Calif.). Non-specific binding of the radiolabeled nucleic acid was subtracted out of the binding such that only specific binding remained (Wong and Lohman, Proc. Natl. Acad. Sci. USA 90:5428-5432 (1993)).

[2] = target: T1, von Willebrand factor (VWF); assay: filter; Bmax 56%; 2 mM CaCl2, 37 C; conditions: tags: factor VIII free, Haematologic Technologies Inc; label: 5'-32P
Procedure: as §1

[3] = target: T1, von Willebrand factor (VWF); assay: filter; Bmax 79%; 2 mM CaCl2, 37 C; conditions: tags: factor VIII free, Haematologic Technologies Inc; label: 5'-32P
Procedure: as §1

[4] = target: T1, von Willebrand factor (VWF); assay: filter; Bmax 62%; 2 mM CaCl2, 37 C; conditions: tags: factor VIII free, Haematologic Technologies Inc; label: 5'-32P
Procedure: as §1

[5] = target: T1, von Willebrand factor (VWF); assay: filter; Bmax 59%; 2 mM CaCl2, 37 C; conditions: tags: factor VIII free, Haematologic Technologies Inc; label: 5'-32P
Procedure: as §1

[6] = target: T1, von Willebrand factor (VWF); assay: filter; Bmax 83%; 2 mM CaCl2, 37 C; conditions: Haematologic Technologies Inc, label: 5'-32P
Procedure: as §1

[7] = target: T1, von Willebrand factor (VWF); assay: filter; Bmax 52%; 2 mM CaCl2, 37 C; conditions: tags: factor VIII free, Haematologic Technologies Inc; label: 5'-32P
Procedure: as §1

[8] = target: T1, von Willebrand factor (VWF); assay: filter; Bmax 55%; 2 mM CaCl2, 37 C; conditions: tags: factor VIII free, Haematologic Technologies Inc; label: 5'-32P
Procedure: as §1

[9] = target: T1, von Willebrand factor (VWF); assay: filter; Bmax 60%; 2 mM CaCl2, 37 C; conditions: tags: factor VIII free, Haematologic Technologies Inc; label: 5'-32P
Procedure: as §1

[10] = target: T1, von Willebrand factor (VWF); assay: filter; Bmax 49%; 2 mM CaCl2, 37 C; conditions: tags: factor VIII free human purified VWF, Haematologic Technologies Inc; label: 5'-32P
Procedure: as §1

[11] = target: T1, von Willebrand factor (VWF); assay: filter; Bmax 84%; 2 mM CaCl2, 37 C; conditions: tags: factor VIII free human purified VWF, Haematologic Technologies Inc; label: 5'-32P
Procedure: as §1

[12] = target: T1, von Willebrand factor (VWF); assay: filter; Bmax 10%; 2 mM CaCl2, 37 C; conditions: tags: factor VIII free, Haematologic Technologies Inc; label: 5'-32P
Procedure: as §1

[13] = target: T1, von Willebrand factor (VWF); assay: filter; Bmax 13%; 2 mM CaCl2, 37 C; conditions: tags: factor VIII free, Haematologic Technologies Inc; label: 5'-32P
Procedure: as §1

[14] = tags: factor VIII free human purified VWF

B1: T25 vrt15 (ssRNA)
RNA: ACGAACUGCCCUCAGCUACUUUCAUGUUGCUGACGCACAGACGU
modifications: rAmCrGrArAfCfUrGfCfCfCfUfCrArGfCfUrAfCfUfUfUfCrAfUrGfUfUrGfCfUrGrAfCrGfCrAfCrArGrAfCmGfU-idT
[1]; tags: factor VIII free
  Kd: 7.3 nM

B2: T25 vrt17 (ssRNA)
RNA: B1 RNA
modifications: rAfCrGrArAfCmUrGfCfCfCfUfCrArGfCfUrAfCfUfUfUfCrAfUrGfUfUrGfCfUrGrAfCrGfCmAfCrArGrAfCrGfU-idT
[2]
  Kd: 23 nM

B3: T25 vrt13 (ssRNA)
RNA: B1 RNA
modifications: rAfCrGmAmAmCfUrGfCfCfCfUmCmAmGmCmUmAmCmUmUmUmCmAmUmGmUmUmGmCmUmGrAfCrGfCrAmCmAmGmAfCrGfU-idT
[3]
  Kd: 1.9 nM

B4: T25 vrt10 (ssRNA)
RNA: B1 RNA
modifications: rAfCrGrArAfCfUrGfCfCfCfUmCmAmGmCmUmAfCfUfUfUfCrAfUrGmUmUmGmCmUmGrAfCrGfCrAfCrArGrAfCrGfU-idT
[4]
  Kd: 5.7 nM

B5: T77 (ssRNA)
RNA: AAAAACGAACUGCCCUCGAUCGACGCACAGACGU
modifications: 2'-F C and U; 2'-OH A and G; 3' idT
[5]
  Kd: 8.8 nM

B6: T59 vrt24 (ssRNA)
RNA: ACGAACUGCCCUCGAUCGACGCACAGACGU
modifications: 2'-F U7,C9,C10,C11,U12,C20,C22,U30; ribo A19,G21; rest 2'-OMe; 3' idT
[6]; [14]
  Kd: 2.4 nM

B7: T69 (ssRNA)
RNA: ACGAACUGCCCUGAUUAUUCACGCACAGACGU
modifications: 2'-F C and U; 2'-OH A and G; 3' idT
[7]
  Kd: 26 nM

B8: T78 (ssRNA)
RNA: CCCAAAACGAACUGCCCUCGAUCGACGCACAGACGU
modifications: 2'-F C and U; 2'-OH A and G; 3' idT
[8]
  Kd: 6.6 nM

B9: T49 (ssRNA)
RNA: ACGAACUGCCCUCGAUUAUUCGACGCACAGACGU
modifications: 2'-F C and U; 2'-OH A and G; 3' idT
[9]
  Kd: 10.5 nM

B10: T59 vrt18 (ssRNA)
RNA: B6 RNA
modifications: mAmCmGmAmAmCmUrGfCfCfCmUmCmGmAmUmCmGmAfCrGfCmAmCmAmGmAmCmGfU-idT
[6]; tags: factor VIII free
  Kd: 5.7 nM

B11: T48 (ssRNA)
RNA: ACGAACUGCCCUCGACUUAUGUCGACGCACAGACGU
modifications: 2'-F C and U; 2'-OH A and G; 3' idT
[7]
  Kd: 12 nM

B12: T89 vrt6 (ssRNA)
RNA: B11 RNA with A15U, C16A, G21U
modifications: 2'-F C9,C10,C11,C26,G27,C28,U36; rest 2'-OMe; 3' idT
[1]; [14]
  Kd: 34.5 nM

B13: T89 vrt3 (ssRNA)
RNA: B11 RNA with A15U, C16A, G21U
modifications: 2'-F C9,C10,C11,C26,C28,U36; rest 2'-OMe; 3' idT
[10]
  Kd: 63 nM

B14: T89 (ssRNA)
RNA: B11 RNA with A15U, C16A, G21U
modifications: 2'-F C and U; 2'-OH A and G; 3' idT
[3]
  Kd: 12 nM

B15: T89 vrt1 (ssRNA)
RNA: B11 RNA with A15U, C16A, G21U
modifications: 2'-F C2,U7,C9,C10,C11,U12,C26,C28,C34,U36; ribo A1,G3,G8,A25,G27,A29,G35; rest 2'-OMe; 3' idT
[11]
  Kd: 1.2 nM

B16: T21 (ssRNA)
RNA: GGGAGGUCAGCUACUUUCAUGUUGCUGACGCACAGACGACUCGCUG
modifications: 2'-F C and U; 2'-OH A and G
[12]
  Kd: 26 nM

B17: DTRI-012 (ssRNA)
RNA: ACGAACUGCCCUCGUAAGACGCACAGACGUUUUUU
modifications: mAmCmGmAmAmCmUmGfCfCfCmUmCmGmUmAmAmGmAfCrGfCmAmCmAmGmAmCmGfUmUmUmUmUmUidT
[1]; tags: factor VIII free
  Kd: 5.5 nM

B18: DTRI-034 (ssRNA)
RNA: B17 RNA
modifications: mAmCmGmAmAmCmUmGfCfCfCmUmCmGmUmAmAmGmAfCfGfCmAmCmAmGmAmCmGmUmUmUmUmUmUidT
[9]
  Kd: 2.8 nM

B19: T16 (ssRNA)
RNA: GGGAGGUGGACGAACUGCCCUCAGCUACGUUGCUGACGCACAGACGACUCGCUG
modifications: 2'-F C and U; 2'-OH A and G
[13]
  Kd: 126 nM

B20: T38 (ssRNA)
RNA: ACGAACUGCCCUCGCACUUUCAUGUGCGACGCACAGACGU
modifications: 2'-F C and U; 2'-OH A and G; 3' idT
[8]
  Kd: 9.6 nM

B21: T64 (ssRNA)
RNA: ACGAACUGCCCUAUUAUUACGCACAGACGU
modifications: 2'-F C and U; 2'-OH A and G; 3' idT
[13]
  Kd: 54 nM

Source: patent US20190218553, “VON WILLEBRAND FACTOR (VWF)-TARGETING AGENTS AND METHODS OF USING THE SAME” (DUKE UNIVERSITY, published 2019)
